Test results published in doi:10.1101/511758 (bioRxiv, 2019).
Like-named read-outs stand apart in the source and are kept apart here.

Experiments:
[1] = target: the molecule itself; experiment: SEC-MALS
[2] = target: N-HelQ;RPA (Homo sapiens;Homo sapiens, UniProt Q8TDG4;P27694;P15927;P35244 1-417;1-616;1-270;1-121, |); experiment: EMSA
[3] = target: HelQ;RPA (Homo sapiens;Homo sapiens, UniProt Q8TDG4;P27694;P15927;P35244 ;1-616;1-270;1-121, |); experiment: EMSA
[4] = target: SSB (Escherichia coli, UniProt P0AGE0 1-178); experiment: EMSA
Chain of SSB (P0AGE0 whole entry): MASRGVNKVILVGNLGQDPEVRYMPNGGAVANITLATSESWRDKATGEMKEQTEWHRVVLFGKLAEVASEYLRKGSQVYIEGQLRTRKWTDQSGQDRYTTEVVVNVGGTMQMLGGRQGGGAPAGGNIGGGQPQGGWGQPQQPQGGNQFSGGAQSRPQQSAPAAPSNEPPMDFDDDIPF

[5] = target: T1, HelQ (Homo sapiens, UniProt Q8TDG4); experiment: EMSA
T1 sequence: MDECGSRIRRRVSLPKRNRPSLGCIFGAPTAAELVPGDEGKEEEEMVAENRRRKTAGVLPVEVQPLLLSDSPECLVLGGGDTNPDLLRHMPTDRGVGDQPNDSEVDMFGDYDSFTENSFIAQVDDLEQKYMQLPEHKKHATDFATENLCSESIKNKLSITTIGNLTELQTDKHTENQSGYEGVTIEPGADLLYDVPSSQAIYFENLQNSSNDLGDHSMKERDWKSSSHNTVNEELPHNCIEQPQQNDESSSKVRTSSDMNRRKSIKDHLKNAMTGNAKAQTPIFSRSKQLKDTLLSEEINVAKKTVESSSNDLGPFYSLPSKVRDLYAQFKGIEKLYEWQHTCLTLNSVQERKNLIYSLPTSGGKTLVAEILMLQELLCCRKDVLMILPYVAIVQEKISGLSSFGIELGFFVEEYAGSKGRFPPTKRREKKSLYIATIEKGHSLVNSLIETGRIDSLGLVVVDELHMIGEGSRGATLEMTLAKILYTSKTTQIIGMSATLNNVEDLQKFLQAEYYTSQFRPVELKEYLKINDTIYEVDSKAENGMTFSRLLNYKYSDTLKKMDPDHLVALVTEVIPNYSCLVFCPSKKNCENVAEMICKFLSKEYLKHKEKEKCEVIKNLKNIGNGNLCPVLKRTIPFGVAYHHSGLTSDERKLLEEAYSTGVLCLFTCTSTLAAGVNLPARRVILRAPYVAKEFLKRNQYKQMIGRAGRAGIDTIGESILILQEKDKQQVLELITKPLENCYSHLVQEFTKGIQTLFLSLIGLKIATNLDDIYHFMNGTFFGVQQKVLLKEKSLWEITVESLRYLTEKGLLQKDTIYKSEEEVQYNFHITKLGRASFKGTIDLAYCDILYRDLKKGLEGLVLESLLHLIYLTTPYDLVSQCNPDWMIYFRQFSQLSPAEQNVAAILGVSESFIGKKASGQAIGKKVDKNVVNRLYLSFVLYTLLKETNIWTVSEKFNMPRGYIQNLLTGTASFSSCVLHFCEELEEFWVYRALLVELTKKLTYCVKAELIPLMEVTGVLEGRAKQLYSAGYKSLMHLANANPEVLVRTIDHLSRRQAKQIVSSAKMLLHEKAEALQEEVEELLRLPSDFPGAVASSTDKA

[6] = target: T2, N-HelQ (Homo sapiens, UniProt Q8TDG4 1-417); experiment: EMSA
T2 sequence: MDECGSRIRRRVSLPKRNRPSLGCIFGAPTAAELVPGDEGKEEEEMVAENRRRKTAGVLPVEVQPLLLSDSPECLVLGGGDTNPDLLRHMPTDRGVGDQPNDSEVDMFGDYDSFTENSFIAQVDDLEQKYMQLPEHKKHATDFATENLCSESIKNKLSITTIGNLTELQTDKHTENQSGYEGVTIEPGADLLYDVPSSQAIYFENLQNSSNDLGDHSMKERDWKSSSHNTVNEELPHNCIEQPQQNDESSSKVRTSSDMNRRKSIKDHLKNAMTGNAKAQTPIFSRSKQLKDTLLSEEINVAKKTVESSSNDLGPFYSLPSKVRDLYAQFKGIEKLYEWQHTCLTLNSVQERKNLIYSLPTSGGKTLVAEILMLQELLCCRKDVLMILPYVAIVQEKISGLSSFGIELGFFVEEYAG

[7] = target: T1, HelQ; experiment: EMSA; remark: listed apart in the source

Chain of N-HelQ;RPA (P27694 whole entry, chain 2 of 3): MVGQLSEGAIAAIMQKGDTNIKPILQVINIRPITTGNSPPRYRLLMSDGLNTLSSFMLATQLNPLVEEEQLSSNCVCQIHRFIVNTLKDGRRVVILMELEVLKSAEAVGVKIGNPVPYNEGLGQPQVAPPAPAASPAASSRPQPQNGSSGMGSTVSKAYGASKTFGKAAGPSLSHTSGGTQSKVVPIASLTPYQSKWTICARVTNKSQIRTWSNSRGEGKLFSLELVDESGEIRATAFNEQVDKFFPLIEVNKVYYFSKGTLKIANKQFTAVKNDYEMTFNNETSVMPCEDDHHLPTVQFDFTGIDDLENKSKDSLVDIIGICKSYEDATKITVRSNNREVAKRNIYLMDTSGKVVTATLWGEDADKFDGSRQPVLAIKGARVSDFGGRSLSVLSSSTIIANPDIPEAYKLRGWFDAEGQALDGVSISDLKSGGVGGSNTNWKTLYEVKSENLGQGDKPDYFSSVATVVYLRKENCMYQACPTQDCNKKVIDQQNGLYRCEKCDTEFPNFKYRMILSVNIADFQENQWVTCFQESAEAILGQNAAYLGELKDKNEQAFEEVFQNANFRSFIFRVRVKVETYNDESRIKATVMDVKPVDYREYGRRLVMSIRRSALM
Chain of N-HelQ;RPA (P15927 whole entry, chain 3 of 3): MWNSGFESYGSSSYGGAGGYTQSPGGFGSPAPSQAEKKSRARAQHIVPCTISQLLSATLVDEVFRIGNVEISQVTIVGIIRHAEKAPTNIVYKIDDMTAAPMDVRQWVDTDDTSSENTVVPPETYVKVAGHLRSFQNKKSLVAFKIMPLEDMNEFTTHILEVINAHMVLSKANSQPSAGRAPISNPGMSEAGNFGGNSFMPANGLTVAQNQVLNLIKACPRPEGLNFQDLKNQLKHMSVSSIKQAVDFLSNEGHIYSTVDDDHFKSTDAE
Chain of N-HelQ;RPA (P35244 whole entry, chain 4 of 3): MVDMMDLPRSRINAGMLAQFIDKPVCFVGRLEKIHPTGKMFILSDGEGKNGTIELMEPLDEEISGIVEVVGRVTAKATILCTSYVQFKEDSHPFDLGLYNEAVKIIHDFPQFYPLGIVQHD
Chain of HelQ;RPA (P27694 whole entry, chain 2 of 3): as the sequence (P27694 whole entry, chain 2 of 3) above
Chain of HelQ;RPA (P15927 whole entry, chain 3 of 3): as the sequence (P15927 whole entry, chain 3 of 3) above
Chain of HelQ;RPA (P35244 whole entry, chain 4 of 3): as the sequence (P35244 whole entry, chain 4 of 3) above

B1: human HelQ helicase (full-length HelQ) (enzyme)
chain: MDECGSRIRRRVSLPKRNRPSLGCIFGAPTAAELVPGDEGKEEEEMVAENRRRKTAGVLPVEVQPLLLSDSPECLVLGGGDTNPDLLRHMPTDRGVGDQPNDSEVDMFGDYDSFTENSFIAQVDDLEQKYMQLPEHKKHATDFATENLCSESIKNKLSITTIGNLTELQTDKHTENQSGYEGVTIEPGADLLYDVPSSQAIYFENLQNSSNDLGDHSMKERDWKSSSHNTVNEELPHNCIEQPQQNDESSSKVRTSSDMNRRKSIKDHLKNAMTGNAKAQTPIFSRSKQLKDTLLSEEINVAKKTVESSSNDLGPFYSLPSKVRDLYAQFKGIEKLYEWQHTCLTLNSVQERKNLIYSLPTSGGKTLVAEILMLQELLCCRKDVLMILPYVAIVQEKISGLSSFGIELGFFVEEYAGSKGRFPPTKRREKKSLYIATIEKGHSLVNSLIETGRIDSLGLVVVDELHMIGEGSRGATLEMTLAKILYTSKTTQIIGMSATLNNVEDLQKFLQAEYYTSQFRPVELKEYLKINDTIYEVDSKAENGMTFSRLLNYKYSDTLKKMDPDHLVALVTEVIPNYSCLVFCPSKKNCENVAEMICKFLSKEYLKHKEKEKCEVIKNLKNIGNGNLCPVLKRTIPFGVAYHHSGLTSDERKLLEEAYSTGVLCLFTCTSTLAAGVNLPARRVILRAPYVAKEFLKRNQYKQMIGRAGRAGIDTIGESILILQEKDKQQVLELITKPLENCYSHLVQEFTKGIQTLFLSLIGLKIATNLDDIYHFMNGTFFGVQQKVLLKEKSLWEITVESLRYLTEKGLLQKDTIYKSEEEVQYNFHITKLGRASFKGTIDLAYCDILYRDLKKGLEGLVLESLLHLIYLTTPYDLVSQCNPDWMIYFRQFSQLSPAEQNVAAILGVSESFIGKKASGQAIGKKVDKNVVNRLYLSFVLYTLLKETNIWTVSEKFNMPRGYIQNLLTGTASFSSCVLHFCEELEEFWVYRALLVELTKKLTYCVKAELIPLMEVTGVLEGRAKQLYSAGYKSLMHLANANPEVLVRTIDHLSRRQAKQIVSSAKMLLHEKAEALQEEVEELLRLPSDFPGAVASSTDKA
With B1 the “stoichiometry N” value [1] was 2.

B2: Fork-A (mixed)
DNA 1: GTCGGATCCTCTAGACAGCTCCATGATCACTGGCACTGGTAGAATTCGGC
DNA 2: CAACGTCATAGACGATTACATTGCTACATGGAGCTCTCTAGAGGATCCGA
B2: binds [2]; binds [3]; binds [4]. B2: binds [5]; no binding [6].

B3: Fork-Me (mixed)
DNA 1: GTCGGATCCTCTAGACAGCATCCATGATCACTGGCACTGGTAGAATTCGGC
DNA 2: CAACGTCATAGACGATTACATTGCTACATGGATGCTGTCTAGAGGATCCGA
modifications: single methylphosphonate linkage in the 3'-5' tracking strand (position marked only in Fig S6)
B3: binds [7].

B4: Fork-AP (mixed)
DNA 1: GTCGGATCCTCTAGACAGCTCCATGATCACTGGCACTGGTAGAATTCGGC
DNA 2: CAACGTCATAGACGATTACATTGCTACATGGAGCTCTCTAGAGGATCCGA
modifications: single abasic site in the 3'-5' tracking strand (position marked only in Fig S6)
B4: binds [7].

B5: Fork-S (mixed)
DNA 1: GTCGGATCCTCTAGACAGCTCCATGATCACTGGCACTGGTAGAATTCGGC
DNA 2: CAACGTCATAGACGATTACATTGCTACATGGAGCTCTCTAGAGGATCCGA
modifications: single phosphorothioate linkage in the 3'-5' tracking strand (position marked only in Fig S6)
B5: binds [7].
